Results on eight molecules are retold here after US20180334510A1 (BRANDEIS UNIVERSITY, published 2018).

The target in assay [1] is T1, Aurora A kinase (human, UniProt O14965 122-403, limits assumed).
T1 construct: also called AurA; deP AurA
T1 sequence: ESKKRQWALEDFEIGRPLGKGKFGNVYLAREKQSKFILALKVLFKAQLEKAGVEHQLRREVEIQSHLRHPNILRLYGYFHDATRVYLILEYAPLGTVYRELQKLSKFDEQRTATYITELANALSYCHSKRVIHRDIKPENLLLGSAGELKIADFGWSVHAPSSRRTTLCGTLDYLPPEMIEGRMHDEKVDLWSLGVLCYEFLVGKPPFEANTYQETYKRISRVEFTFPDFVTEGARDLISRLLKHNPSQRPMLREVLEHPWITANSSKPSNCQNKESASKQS
Description: isothermal titration calorimetry; Mb60 alone, not the sGFP fusion (FIG. 6C). Background: In ITC the heat of successive injections is recorded.

For another assay, the target named is T2, Y199K.
T2 construct: also called Y199K mutant Aurora A; Y199K Aurora A hotspot mutant
T2 chain: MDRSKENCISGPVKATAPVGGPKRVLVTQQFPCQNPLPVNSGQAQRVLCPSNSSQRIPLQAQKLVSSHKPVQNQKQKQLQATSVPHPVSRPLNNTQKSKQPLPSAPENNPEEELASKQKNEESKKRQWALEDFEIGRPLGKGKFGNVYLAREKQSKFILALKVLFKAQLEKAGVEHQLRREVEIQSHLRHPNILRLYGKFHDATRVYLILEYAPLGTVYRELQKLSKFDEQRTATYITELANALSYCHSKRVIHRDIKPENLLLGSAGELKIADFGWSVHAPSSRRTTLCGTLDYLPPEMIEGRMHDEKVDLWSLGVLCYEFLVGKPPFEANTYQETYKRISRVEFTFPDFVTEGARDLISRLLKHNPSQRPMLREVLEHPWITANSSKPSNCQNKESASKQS
Description: yeast display, single point with Y199K Aurora A, mean fluorescence.

The target of assay [2] is T1, Aurora A kinase. The assay is described as follows: isothermal titration calorimetry with dephosphorylated Aurora A (deP AurA). Further details: dS: unit not given here.
Assay [3] concerns the target T1, Aurora A kinase. Description: yeast display titration of the clone with wild type Aurora A, mean fluorescence.
The target of assay [4] is T1, Aurora A kinase. Description: isothermal titration calorimetry.
Assay [5] deals with T1, Aurora A kinase. Description: method not stated; told in the isothermal titration calorimetry paragraph.
The target of assay [6] is T1, Aurora A kinase. Description: isothermal titration calorimetry with dephosphorylated Aurora A (deP AurA).
For assay [7], the target named is T1, Aurora A kinase. Described as above. The source holds these as a separate data set.
The target of the next assay is T3, Y199H.
T3 construct: also called Y199H mutant Aurora A; Y199H Aurora A hotspot mutant
T3 chain: T2 chain with K199H
The assay is described as follows: yeast display, single point with Y199H Aurora A, mean fluorescence.

Assay [8] has as its target T1, Aurora A kinase. The assay is described as follows: isothermal titration calorimetry with dephosphorylated Aurora A (deP AurA). The source holds these as a separate data set.
Assay [9] deals with T1, Aurora A kinase. The assay is described as above. Further details: dS: unit not given here. This is another data set of the same source.
The target of assay [10] is T1, Aurora A kinase. Described as above. This is another data set of the same source.

Where a chain is given by its changes, count along the chain named. Read-outs that look alike come from different tables or passages of the source.

B1: monobody Mb60 (designed binder)
chain: SVSSVPTKLEVVAATPTSLLISWDAPAVTVVHYVITYGETGGNSPVQEFTVPGSKSTATISGLKPGVDYTITVYAIDFYWGSYSPISINYRT
notes: Monobody on a fibronectin type III (FN3) scaffold; also called AuroraA_60
On to B1, for which, in the assay with Aurora A kinase [1], the Kd is around 1000 nM. Besides, the binding result in the assay with Y199K was “no binding (tested: 2000 (axis unit not printed))”. In the assay with Aurora A kinase [2], this molecule yielded a Kd of 1200 nM, a dH of -134 kJ/mol, a dS of -334 and a n of 0.92. Besides, in the assay with Aurora A kinase [3], the Kd is 25 nM.

B2: monobody Mb60 fused to supercharged GFP (designed binder)
chain: B1 chain
notes: also called sGFP-Mb60; not shown: supercharged green fluorescent protein
In the case of B2, in the assay with Aurora A kinase [4], the Kd is around 9.9 µM.

Molecule MSQVKSSYSYDAPSDFINFSSLDDEGDTQNIDSWFEEKANLENKL (other, also called TPX2 polypeptide) [TPX2] had a Kd with Aurora A kinase [5] of 50 µM.

B3: monobody Mb44 (designed binder)
chain: SVSSVPTKLEVVAATPTSLLISWDAPAVTVDFYVITYGETGGYSYPWQEFEVPGSKSTATISGLKPGVDYTITVYADYGQYFYSPISINYRT
notes: Monobody on a fibronectin type III (FN3) scaffold; also called AuroraA_44
In the assay with Aurora A kinase [6], B3 yielded a Kd of 2600 nM, a dH of -57.2 kJ/mol, a dS of -84.9 J/mol*K and a n of 1.06. Further, the affinity in the assay with Aurora A kinase [3], expressed as Kd, was 42 nM.

B4: monobody Mb51 (designed binder)
chain: SVSSVPTKLEVVAATPTSLLISWDAKPMSYEPVYYYRITYGETGGNSPVQEFTVPGYYSTATISGLKPGVDYTITVYADSMSSYYYSPISINYRT
notes: Monobody on a fibronectin type III (FN3) scaffold; also called AuroraA_51
With B4, in the assay with Y199K, the binding result is listed as “no binding (tested: 2000 (axis unit not printed))”. In the assay with Aurora A kinase [7], this molecule displayed a Kd of 27.4 nM, a dH of -38.1 kJ/mol, a dS of -16.9 J/mol*K and a n of 0.93. Besides, in the assay with Aurora A kinase [3], the Kd amounted to 6 nM.

B5: monobody Mb2 (designed binder)
chain: SVSSVPTKLEVVAATPTSLLISWDAFGHQYEPVYYYRITYGETGGNSPVQEFTVPGYYSTATISGLKPGVDYTITVYAWYVDGSYSSPISINYRT
notes: Monobody on a fibronectin type III (FN3) scaffold; also called AuroraA_2
B5: the binding result with Y199H is recorded as “no binding (tested: 2000 (axis unit not printed))”. For the same molecule, in the assay with Aurora A kinase [8], the Kd was found to be 8.7 nM, the dH is -67.4 kJ/mol, the dS was -71.6 J/mol*K and the n was 1.02. Further, binding with Aurora A kinase [3] was characterised by a dissociation constant (Kd) of 16.7 nM.

B6: monobody Mb56 (designed binder)
chain: SVSSVPTKLEVVAATPTSLLISWDAMSDWYYWVDYYRITYGETGGNSPVQEFTVPGSYSTATISGLKPGVDYTITVYASDDVWGDYSPISINYRT
notes: Monobody on a fibronectin type III (FN3) scaffold; also called AuroraA_56
As to B6, the binding result with Y199K is on record as “no binding (tested: 2000 (axis unit not printed))”. In the assay with Aurora A kinase [9], this molecule registered a Kd of 163 nM, a dH of -42.4 kJ/mol, a dS of -29.1 and a n of 0.94. In the assay with Aurora A kinase [3], this molecule gave a Kd of 60 nM.

B7: monobody Mb54 (designed binder)
chain: SVSSVPTKLEVVAATPTSLLISWDAQTYQMYDYVSYYRITYGETGGNSPVQEFTVPGYYSTATISGLKPGVDYTITVYAEGYYSSYSPISINYRT
notes: Monobody on a fibronectin type III (FN3) scaffold; also called AuroraA_54
For B7, the binding result with Y199H is given as “no binding (tested: 2000 (axis unit not printed))”. In the assay with Aurora A kinase [10], this molecule had a Kd of 175 µM, a dH of -101 kJ/mol, a dS of -210 J/mol*K and a n of 0.92. This molecule yielded an equilibrium dissociation constant (Kd) with Aurora A kinase [3] of 81 nM.

In general, Kd refers to a measure of binding affinity in units of concentration.
